Results reported in article PMC5247461.

Target: OsPUB2 recombinant protein, bacterially expressed ((His)6-OsPUB2 and MBP-OsPUB2) (rice (Oryza sativa L.))

## OsPUB3 recombinant protein, bacterially expressed ((His)6-OsPUB3 and MBP-OsPUB3) (natural protein)
  apparent half-life of MBP-OsPUB2 in mock-treated rice cell-free extract when mixed with (His)6-OsPUB3 (150 min without it); cell-free degradation assay, 0-6 h at 30°C: 4.17 h
  apparent half-life of MBP-OsPUB3 in mock-treated rice cell-free extract when mixed with (His)6-OsPUB2 (140 min without it); cell-free degradation assay, 0-6 h at 30°C: 5.83 h
